Experimental findings from patent publication US20230119066A1 are described below.

In test [1] the target is mouse C-C Motif Chemokine Receptor 8 (mCCR8) (mouse) (UniProt P56484). Kind of test: cell-based or functional assay.
The target is the same in test [2]. The test can be described thus: flow cytometry on mouse thymic CD4+ cells.
For test [3] the target is unchanged. Kind of test: flow cytometry on mCCR8-expressing CHO cells.
Test [4] has the same target. Kind of test: flow cytometry on activated mouse splenic CD4+ cells.

Sequence of mouse C-C Motif Chemokine Receptor 8 (mCCR8) (mouse) (P56484 whole entry): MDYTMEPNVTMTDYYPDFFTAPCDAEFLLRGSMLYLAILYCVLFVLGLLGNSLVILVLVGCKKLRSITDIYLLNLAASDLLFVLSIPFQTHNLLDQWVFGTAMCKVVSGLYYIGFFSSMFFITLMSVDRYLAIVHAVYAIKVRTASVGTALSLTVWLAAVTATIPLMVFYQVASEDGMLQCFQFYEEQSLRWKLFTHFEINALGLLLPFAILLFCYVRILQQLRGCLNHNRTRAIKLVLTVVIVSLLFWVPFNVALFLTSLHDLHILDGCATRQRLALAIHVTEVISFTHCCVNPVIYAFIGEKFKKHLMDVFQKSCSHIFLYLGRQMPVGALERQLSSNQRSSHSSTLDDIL

For the substance “anti-CCR8-mIgG2a, mouse IgG2a isotype of rat anti-mCCR8 mAb Clone SA214G2 (BioLegend) (antibody)”, the EC50, crosslinking of mouse FcgRIV+ luciferase reporter effector cells in test [1] was determined as 6.34 nM. In test [1], this substance returned an IC50, blockade of Ca flux on mCCR8-expressing CHO cells of 19.3 nM. The EC50 is 4 nM in test [2], 6.44 nM in test [3] and 6.16 nM in test [4].
